Data as given in PMC5379764, “Polynucleotide phosphorylase is implicated in homologous recombination and DNA repair in Escherichia coli”.

Target: T1, PNPase wild type (Escherichia coli, UniProt P05055 1-711)
T1 sequence: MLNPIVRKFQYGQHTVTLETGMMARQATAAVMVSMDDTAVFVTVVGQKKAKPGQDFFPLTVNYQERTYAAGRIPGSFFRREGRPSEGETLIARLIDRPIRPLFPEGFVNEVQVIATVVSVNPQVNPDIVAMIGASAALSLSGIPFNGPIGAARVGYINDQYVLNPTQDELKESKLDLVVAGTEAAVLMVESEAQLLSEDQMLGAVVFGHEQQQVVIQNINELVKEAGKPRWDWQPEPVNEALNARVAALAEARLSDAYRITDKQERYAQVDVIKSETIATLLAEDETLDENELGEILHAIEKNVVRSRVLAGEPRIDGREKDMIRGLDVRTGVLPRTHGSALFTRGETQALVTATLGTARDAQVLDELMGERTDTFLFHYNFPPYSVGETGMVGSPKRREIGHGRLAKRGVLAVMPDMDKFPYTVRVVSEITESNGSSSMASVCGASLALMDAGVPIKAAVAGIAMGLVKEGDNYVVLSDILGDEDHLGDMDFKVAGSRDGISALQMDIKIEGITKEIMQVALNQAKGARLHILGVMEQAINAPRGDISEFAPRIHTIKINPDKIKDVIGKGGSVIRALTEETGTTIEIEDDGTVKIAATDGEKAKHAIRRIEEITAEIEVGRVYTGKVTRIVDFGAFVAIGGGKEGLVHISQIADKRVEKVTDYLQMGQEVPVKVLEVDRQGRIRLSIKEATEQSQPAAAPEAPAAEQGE
Assay: EMSA; no divalent cation; efficiency similar to RNA01; 50 mM Tris-HCl pH 7.4, 50 mM NaCl, 0.5 mM DTT, 0.025% NP40, 10% glycerol, +/- 2 mM MgCl2 or MnCl2; 50 fmol probe in 10 µl; 20 min at 21 °C; native 5% PAGE at 4
Details: protein: recombinant; tags: His-tag; chain copies: 3; label: 5'-32P; single-stranded 20-mer

Binder: ACTGGACAAATACTCCGACG (ssDNA) [DNA02]
- binding result: binds
